How the values were obtained:
HeLa Kyoto [1] = assay: thermal stability score vs G1/S (z-score of summed log2 fold changes over temperatures); higher = more thermally stable than in G1/S
HeLa Kyoto [2] = assay: solubility change mitosis vs G1/S (difference of NP-40 vs SDS log2 ratios) (log2 ratio difference); higher = more soluble in mitosis
HeLa Kyoto [3] = assay: solubility in G1/S (NP-40 vs SDS abundance) (log2 ratio); higher = more soluble; details: cell cycle stage: G1/S
HeLa Kyoto [4] = assay: melting temperature (median over replicates), in situ; higher = more thermally stable
[5] = cell cycle stage: early G1 (4.5 h after nocodazole release)
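Wherever melting temperature (median over replicates), in situ is given: HeLa Kyoto cells synchronized by double thymidine or nocodazole block, proteins quantified by TMT10plex mass spectrometry, three independent biological replicates.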
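Wherever solubility change mitosis vs G1/S (difference of NP-40 vs SDS log2 ratios) is given: synchronized HeLa Kyoto cells (double thymidine block for G1/S, nocodazole release for mitosis), protein amounts in NP-40 versus SDS lysates quantified by mass spectrometry, three biological replicates.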
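Wherever solubility in G1/S (NP-40 vs SDS abundance) is given: HeLa Kyoto cells arrested at G1/S by double thymidine block, proteins quantified by TMT10plex mass spectrometry in mild NP-40 versus SDS extracts, three biological replicates.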
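Wherever thermal stability score vs G1/S (z-score of summed log2 fold changes over temperatures) is given: synchronized HeLa Kyoto cells, proteins quantified by TMT10plex mass spectrometry, three biological replicates, mitosis taken 0.5 h after nocodazole release, G1/S directly after double thymidine block.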

| Substance | thermal stability score (HeLa Kyoto [1]; [5]) | thermal stability score (HeLa Kyoto [1]; cell cycle stage: mitosis) | solubility change mitosis (log2) (HeLa Kyoto [2]) | solubility in G1/S (log2) (HeLa Kyoto [3]) | melting temperature (HeLa Kyoto [4]; cell cycle stage: G1/S) [°C] | melting temperature (HeLa Kyoto [4]; cell cycle stage: mitosis) [°C] |
| --- | --- | --- | --- | --- | --- | --- |
| MSRLKRIAGQDLRAGFKAGGRDCGTSVPQGLLKAARKSGQLNLSGRNLSEVPQCVWRINVDIPEEANQNLSFGATERWWEQTDLTKLIISNNKLQSLTDDLRLLPALTVLDIHDNQLTSLPSAIRELENLQKLNVSHNKLKILPEEITNLRNLKCLYLQHNELTCISEGFEQLSNLEDLDLSNNHLTTVPASFSSLSSLVRLNLSSNELKSLPAEINRMKRLKHLDCNSNLLETIPPELAGMESLELLYLRRNKLRFLPEFPSCSLLKELHVGENQIEMLEAEHLKHLNSILVLDLRDNKLKSVPDEIILLRSLERLDLSNNDISSLPYSLGNLHLKFLALEGNPLRTIRREIISKGTQEVLKYLRSKIKDDGPSQSESATETAMTLPSESRVNIHAIITLKILDYSDKQATLIPDEVFDAVKSNIVTSINFSKNQLCEIPKRMVELKEMVSDVDLSFNKLSFISLELCVLQKLTFLDLRNNFLNSLPEEMESLVRLQTINLSFNRFKMLPEVLYRIFTLETILISNNQVGSVDPQKMKMMENLTTLDLQNNDLLQIPPELGNCVNLRTLLLDGNPFRVPRAAILMKGTAAILEYLRDRIPT [LRRC40] | 0.285 | 1.77 | -0.167 | 0.322 | 49.2 | 49.2 |
| MASYPYRQGCPGAAGQAPGAPPGSYYPGPPNSGGQYGSGLPPGGGYGGPAPGGPYGPPAGGGPYGHPNPGMFPSGTPGGPYGGAAPGGPYGQPPPSSYGAQQPGLYGQGGAPPNVDPEAYSWFQSVDSDHSGYISMKELKQALVNCNWSSFNDETCLMMINMFDKTKSGRIDVYGFSALWKFIQQWKNLFQQYDRDRSGSISYTELQQALSQMGYNLSPQFTQLLVSRYCPRSANPAMQLDRFIQVCTQLQVLTEAFREKDTAVQGNIRLSFEDFVTMTASRML [PEF1] | -1.46 | -1.2 | 0.345 | -0.126 | 53.5 | 53.2 |
| THOC2 | -3.49 | -0.552 | 0.221 | -0.681 | 48.6 | 49.5 |
| MADGQMPFSCHYPSRLRRDPFRDSPLSSRLLDDGFGMDPFPDDLTASWPDWALPRLSSAWPGTLRSGMVPRGPTATARFGVPAEGRTPPPFPGEPWKVCVNVHSFKPEELMVKTKDGYVEVSGKHEEKQQEGGIVSKNFTKKIQLPAEVDPVTVFASLSPEGLLIIEAPQVPPYSTFGESSFNNELPQDSQEVTCT [HSPB8] | -0.244 | 0.347 | 0.167 | 0.653 | 52.3 | 52.1 |
| MASCASIDIEDATQHLRDILKLDRPAGGPSAESPRPSSAYNGDLNGLLVPDPLCSGDSTSANKTGLRTMPPINLQEKQVICLSGDDSSTCIGILAKEVEIVASSDSSISSKARGSNKVKIQPVAKYDWEQKYYYGNLIAVSNSFLAYAIRAANNGSAMVRVISVSTSERTLLKGFTGSVADLAFAHLNSPQLACLDEAGNLFVWRLALVNGKIQEEILVHIRQPEGTPLNHFRRIIWCPFIPEESEDCCEESSPTVALLHEDRAEVWDLDMLRSSHSTWPVDVSQIKQGFIVVKGHSTCLSEGALSPDGTVLATASHDGYVKFWQIYIEGQDEPRCLHEWKPHDGRPLSCLLFCDNHKKQDPDVPFWRFLITGADQNRELKMWCTVSWTCLQTIRFSPDIFSSVSVPPSLKVCLDLSAEYLILSDVQRKVLYVMELLQNQEEGHACFSSISEFLLTHPVLSFGIQVVSRCRLRHTEVLPAEEENDSLGADGTHGAGAMESAAGVLIKLFCVHTKALQDVQIRFQPQLNPDVVAPLPTHTAHEDFTFGESRPELGSEGLGSAAHGSQPDLRRIVELPAPADFLSLSSETKPKLMTPDAFMTPSASLQQITASPSSSSSGSSSSSSSSSSSLTAVSAMSSTSAVDPSLTRPPEELTLSPKLQLDGSLTMSSSGSLQASPRGLLPGLLPAPADKLTPKGPGQVPTATSALSLELQEVEPLGLPQASPSRTRSPDVISSASTALSQDIPEIASEALSRGFGSSAPEGLEPDSMASAASALHLLSPRPRPGPELGPQLGLDGGPGDGDRHNTPSLLEAALTQEASTPDSQVWPTAPDITRETCSTLAESPRNGLQEKHKSLAFHRPPYHLLQQRDSQDASAEQSDHDDEVASLASASGGFGTKVPAPRLPAKDWKTKGSPRTSPKLKRKSKKDDGDAAMGSRLTEHQVAEPPEDWPALIWQQQRELAELRHSQEELLQRLCTQLEGLQSTVTGHVERALETRHEQEQRRLERALAEGQQRGGQLQEQLTQQLSQALSSAVAGRLERSIRDEIKKTVPPCVSRSLEPMAGQLSNSVATKLTAVEGSMKENISKLLKSKNLTDAIARAAADTLQGPMQAAYREAFQSVVLPAFEKSCQAMFQQINDSFRLGTQEYLQQLESHMKSRKAREQEAREPVLAQLRGLVSTLQSATEQMAATVAGSVRAEVQHQLHVAVGSLQESILAQVQRIVKGEVSVALKEQQAAVTSSIMQAMRSAAGTPVPSAHLDCQAQQAHILQLLQQGHLNQAFQQALTAADLNLVLYVCETVDPAQVFGQPPCPLSQPVLLSLIQQLASDLGTRTDLKLSYLEEAVMHLDHSDPITRDHMGSVMAQVRQKLFQFLQAEPHNSLGKAARRLSLMLHGLVTPSLP [EDC4] | 0.116 | 2.4 | -0.158 | 0.013 | 49.6 | 50.1 |
